Data set [1] concerns the target T1, cHAD (Caenorhabditis elegans, UniProt P34439, Y209A).
T1 construct: gene F54C8.1; C-terminal GST tag cleaved; pEXS-CG vector, E. coli BL21(DE3)
T1 sequence (P34439 1-298 Y209A): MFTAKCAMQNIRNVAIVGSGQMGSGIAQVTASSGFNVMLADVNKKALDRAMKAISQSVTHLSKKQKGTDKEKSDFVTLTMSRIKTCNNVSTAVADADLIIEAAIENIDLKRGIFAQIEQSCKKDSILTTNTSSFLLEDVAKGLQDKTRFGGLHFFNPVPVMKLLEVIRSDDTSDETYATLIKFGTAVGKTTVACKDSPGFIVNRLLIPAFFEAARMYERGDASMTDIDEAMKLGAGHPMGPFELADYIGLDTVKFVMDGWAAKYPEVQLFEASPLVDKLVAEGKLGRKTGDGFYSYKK
The data set can be described thus: Trp-NADH FRET titration, ex […] nm, em […] nm, Hill fit. It is filed as binding. The conditions noted are these: 10 mM citrate/phosphate pH 7.0, 150 mM NaCl, ambient temperature, 0.58 µM protein, 0-340 µM NADH.

Data set [2] deals with T2, cHAD (Caenorhabditis elegans, UniProt P34439).
T2 construct: gene F54C8.1; C-terminal GST tag cleaved; pEXS-CG vector, E. coli BL21(DE3)
T2 sequence (P34439 1-298): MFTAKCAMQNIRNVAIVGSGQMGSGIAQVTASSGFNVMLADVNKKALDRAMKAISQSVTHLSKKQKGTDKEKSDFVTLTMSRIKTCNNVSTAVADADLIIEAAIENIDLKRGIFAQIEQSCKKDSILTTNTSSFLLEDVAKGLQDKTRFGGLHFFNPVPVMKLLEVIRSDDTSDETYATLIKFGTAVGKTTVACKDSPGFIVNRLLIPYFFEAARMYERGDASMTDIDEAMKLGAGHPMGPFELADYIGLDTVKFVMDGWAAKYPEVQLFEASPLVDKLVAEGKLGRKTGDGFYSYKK
Kind of data set: difference absorption spectroscopy of the ternary charge-transfer complex, […] nm. Format: binding. The conditions noted are these: 2 mM NAD+ with 2 mM acetoacetyl-CoA, 0.2 M citrate/phosphate pH 7.0, ambient temperature, 2 mg/ml protein; abortive ternary complex.

Substrate in data set [3]: CC(=O)CC(=O)SCCNC(=O)CCNC(=O)[C@H](O)C(C)(C)COP(=O)(O)OP(=O)(O)OC[C@H]1O[C@@H](n2cnc3c(N)ncnc32)[C@H](O)[C@@H]1OP(=O)(O)O
The data set can be described thus: purified protein. It is filed as biochemical, Caenorhabditis elegans. The conditions noted are these: 100 µM NADH (saturating), 0.1 M citrate/phosphate pH 7.0, 0.1 mM dithiothreitol, 298 K, 23 nM protein, AACoA 30-70 µM, 25.0 °C.

Data set [4] concerns the molecule itself. Kind of data set: SEC-MALS; SEC-LS/UV/RI; WTC-030S5 column, 20 mM MES pH 6.0, 100 mM sodium chloride; 100 µg protein injected, 0.5 ml/min.
Data set [5] concerns the molecule itself. Kind of data set: cross-linking; EGS, protein:EGS 1:50, on ice 40 min; protein diluted to 2 mg/ml in 0.2 M Na2HPO4, 0.1 M citrate pH 7.0; SDS-PAGE.

For `NC(=O)C1=CN([C@@H]2O[C@H](COP(=O)(O)OP(=O)(O)OC[C@H]3O[C@@H](n4cnc5c(N)ncnc54)[C@H](O)[C@@H]3O)[C@@H](O)[C@H]2O)C=CC1` [NADH], the “Trp-NADH FRET titration, ex 270 nm, em 460 nm, Hill fit” value in data set [1] is “Wild type and Y209A mutant cHAD show exactly the same number of Hill coefficient”.
Turning to `NC(=O)c1ccc[n+]([C@@H]2O[C@H](COP(=O)(O)OP(=O)(O)OC[C@H]3O[C@@H](n4cnc5c(N)ncnc54)[C@H](O)[C@@H]3O)[C@@H](O)[C@H]2O)c1` [NAD^+], in data set [2], the “difference absorption spectroscopy of the ternary charge-transfer complex, 412 n” value is “difference spectroscopy of cHAD·NAD^+·AACoA ternary complex”.

B1: 3-hydroxyacyl-CoA dehydrogenase from C. elegans, wild type (enzyme, Caenorhabditis elegans)
chain: MFTAKCAMQNIRNVAIVGSGQMGSGIAQVTASSGFNVMLADVNKKALDRAMKAISQSVTHLSKKQKGTDKEKSDFVTLTMSRIKTCNNVSTAVADADLIIEAAIENIDLKRGIFAQIEQSCKKDSILTTNTSSFLLEDVAKGLQDKTRFGGLHFFNPVPVMKLLEVIRSDDTSDETYATLIKFGTAVGKTTVACKDSPGFIVNRLLIPYFFEAARMYERGDASMTDIDEAMKLGAGHPMGPFELADYIGLDTVKFVMDGWAAKYPEVQLFEASPLVDKLVAEGKLGRKTGDGFYSYKK
notes: 3-hydroxyacyl-CoA dehydrogenase (cHAD), Caenorhabditis elegans, WormBase WBGene00010035, GenBank CAA80153.1; N-terminal domain 9-194, loop 195-201 and C-terminal domain 202-297 described in the structure; vector pEXS-CG (derived from pET-22b(+)); also called cHAD; wild type cHAD; not shown: GST, C-terminal, cleaved
As for B1, in data set [3], the Km worked out at 72.0 ± 13.4 µM, the Vmax stood at 78 µmol/min/mg, the catalytic constant (kcat) came out at 45 s⁻¹ and the kcat/Km was found to be 600000 M⁻¹ s⁻¹. In data set [4], the “stoichiometry N” value worked out at 2.

B2: 3-hydroxyacyl-CoA dehydrogenase from C. elegans, Y209A mutant (enzyme, Caenorhabditis elegans)
chain: MFTAKCAMQNIRNVAIVGSGQMGSGIAQVTASSGFNVMLADVNKKALDRAMKAISQSVTHLSKKQKGTDKEKSDFVTLTMSRIKTCNNVSTAVADADLIIEAAIENIDLKRGIFAQIEQSCKKDSILTTNTSSFLLEDVAKGLQDKTRFGGLHFFNPVPVMKLLEVIRSDDTSDETYATLIKFGTAVGKTTVACKDSPGFIVNRLLIPAFFEAARMYERGDASMTDIDEAMKLGAGHPMGPFELADYIGLDTVKFVMDGWAAKYPEVQLFEASPLVDKLVAEGKLGRKTGDGFYSYKK
notes: 3-hydroxyacyl-CoA dehydrogenase (cHAD), Caenorhabditis elegans, WormBase WBGene00010035, GenBank CAA80153.1; as m1 with Y209A; Made by overlapping PCR from the wild type plasmid, ligated into pEXS-CG (BamHI, EcoRI); also called cHAD Y209A; source: E. coli BL21 (DE3), purified (same procedure as the wild type); not shown: GST, C-terminal, cleaved
As to B2, the binding result in data set [5] is “binds”. Also, in data set [3], the Michaelis-Menten constant (Km) was found to be 50.4 ± 11.0 µM, the Vmax is 30 µmol/min/mg, the kcat amounted to 17 s⁻¹ and the kcat/Km is 300000 M⁻¹ s⁻¹.

B3: 3-hydroxyacyl-CoA dehydrogenase from C. elegans, R204A/Y209A mutant (enzyme, Caenorhabditis elegans)
chain: MFTAKCAMQNIRNVAIVGSGQMGSGIAQVTASSGFNVMLADVNKKALDRAMKAISQSVTHLSKKQKGTDKEKSDFVTLTMSRIKTCNNVSTAVADADLIIEAAIENIDLKRGIFAQIEQSCKKDSILTTNTSSFLLEDVAKGLQDKTRFGGLHFFNPVPVMKLLEVIRSDDTSDETYATLIKFGTAVGKTTVACKDSPGFIVNALLIPAFFEAARMYERGDASMTDIDEAMKLGAGHPMGPFELADYIGLDTVKFVMDGWAAKYPEVQLFEASPLVDKLVAEGKLGRKTGDGFYSYKK
notes: 3-hydroxyacyl-CoA dehydrogenase (cHAD), Caenorhabditis elegans, WormBase WBGene00010035, GenBank CAA80153.1; as m1 with R204A and Y209A; Made by overlapping PCR from the wild type plasmid, ligated into pEXS-CG (BamHI, EcoRI); also called cHAD R204A/Y209A; source: E. coli BL21 (DE3), purified (same procedure as the wild type); not shown: GST, C-terminal, cleaved
In the case of B3, in data set [5], the binding result is recorded as “binds”. In addition, in data set [3], the Km is 115.6 ± 24.5 µM, the Vmax was 18 µmol/min/mg, the kcat is 10 s⁻¹ and the kcat/Km was found to be 90000 M⁻¹ s⁻¹.

B4: 3-hydroxyacyl-CoA dehydrogenase from C. elegans, R204A mutant (enzyme, Caenorhabditis elegans)
chain: MFTAKCAMQNIRNVAIVGSGQMGSGIAQVTASSGFNVMLADVNKKALDRAMKAISQSVTHLSKKQKGTDKEKSDFVTLTMSRIKTCNNVSTAVADADLIIEAAIENIDLKRGIFAQIEQSCKKDSILTTNTSSFLLEDVAKGLQDKTRFGGLHFFNPVPVMKLLEVIRSDDTSDETYATLIKFGTAVGKTTVACKDSPGFIVNALLIPYFFEAARMYERGDASMTDIDEAMKLGAGHPMGPFELADYIGLDTVKFVMDGWAAKYPEVQLFEASPLVDKLVAEGKLGRKTGDGFYSYKK
notes: 3-hydroxyacyl-CoA dehydrogenase (cHAD), Caenorhabditis elegans, WormBase WBGene00010035, GenBank CAA80153.1; as m1 with R204A; Made by overlapping PCR from the wild type plasmid, ligated into pEXS-CG (BamHI, EcoRI); also called cHAD R204A; source: E. coli BL21 (DE3), purified (same procedure as the wild type); not shown: GST, C-terminal, cleaved
On to B4, for which, in data set [5], the binding result is listed as “binds”. Besides, in data set [3], the Km is 83.2 ± 9.7 µM, the Vmax amounted to 48 µmol/min/mg, the turnover number (kcat) amounted to 28 s⁻¹ and the kcat/Km was 300000 M⁻¹ s⁻¹.
